± gives the standard error. For some of these results: Variants at the floor of the assay were thinned out.
B1: glmS ribozyme (parent)
chain: AUAAAAGCGCCAGAACUACAGAAAUGUAGUUGACGAGGAGGAGGUUUAUCGAAUUUUCGGCGGAUGCCUCCAAA

What was measured:
Conditions in all cases: with glucosamine-6-phosphate
glucosamine-6-phosphate [1] = variants of: B1; experiment: kcat; higher = faster cleavage; RNA array
Procedure, shortened: (§1)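 Weighted Michaelis–Menten fits across concentrations supplied kcat and KM, based on kobs from one- or two-exponential decay fits to normalised per-tile medians. The data came from barcoded ribozyme variants transcribed in situ by E. coli RNA polymerase on sequenced MiSeq chips and tracked at 37 °C by a hybridised Cy3 probe. Glucosamine-6-phosphate (40 μM to 10 mM) in HEPES/KCl/Mg(OAc)2 buffer was flowed in.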

glucosamine-6-phosphate [2] = variants of: B1; experiment: self-cleavage kobs at 160 uM GlcN6P; higher = faster cleavage; RNA array
Procedure, shortened: as §1

glucosamine-6-phosphate [3] = variants of: B1; experiment: self-cleavage kobs at 640 uM GlcN6P; higher = faster cleavage; RNA array
Procedure, shortened: as §1

glucosamine-6-phosphate [4] = variants of: B1; experiment: self-cleavage kobs at 2500 uM GlcN6P; higher = faster cleavage; RNA array
Procedure, shortened: as §1

glucosamine-6-phosphate [5] = variants of: B1; experiment: self-cleavage kobs at 10000 uM GlcN6P; higher = faster cleavage; RNA array
Procedure, shortened: as §1

glucosamine-6-phosphate [6] = variants of: B1; experiment: self-cleavage kobs at 40 uM GlcN6P; higher = faster cleavage; RNA array
Procedure, shortened: as §1

glucosamine-6-phosphate [7] = variants of: B1; experiment: KM; higher = weaker cofactor use; RNA array
Procedure, shortened: as §1

For C70G C71G, the kcat (glucosamine-6-phosphate [1]) was 3.62e-05 ± 7e-06 s⁻¹, the “self-cleavage kobs at 160 uM GlcN6P” value (glucosamine-6-phosphate [2]) was 3.85e-05 ± 1.4e-05 s⁻¹ and the “self-cleavage kobs at 640 uM GlcN6P” value (glucosamine-6-phosphate [3]) was 5.98e-05 ± 1.4e-05 s⁻¹. For the same variant, the “self-cleavage kobs at 2500 uM GlcN6P” value (glucosamine-6-phosphate [4]) was 3.62e-05 ± 9.7e-06 s⁻¹ and the “self-cleavage kobs at 10000 uM GlcN6P” value (glucosamine-6-phosphate [5]) was 2.86e-05 ± 7.6e-06 s⁻¹.

With C68A C71A the kcat (glucosamine-6-phosphate [1]) was < 1e-05 s⁻¹, the “self-cleavage kobs at 160 uM GlcN6P” value (glucosamine-6-phosphate [2]) was < 1e-05 s⁻¹ and the “self-cleavage kobs at 10000 uM GlcN6P” value (glucosamine-6-phosphate [5]) was < 1e-05 s⁻¹.

With A6G G7C C16A G41U the “self-cleavage kobs at 40 uM GlcN6P” value (glucosamine-6-phosphate [6]) was < 1e-05 s⁻¹.

A15C G38U showed a KM (glucosamine-6-phosphate [7]) of 67.7 ± 27 µM.

With G7A C11G U69A the “self-cleavage kobs at 40 uM GlcN6P” value (glucosamine-6-phosphate [6]) was 0.000101 ± 2.8e-05 s⁻¹.

G7A A12C A42C U49A G60C was tested, and the “self-cleavage kobs at 40 uM GlcN6P” value (glucosamine-6-phosphate [6]) was < 1e-05 s⁻¹ and the “self-cleavage kobs at 10000 uM GlcN6P” value (glucosamine-6-phosphate [5]) was < 1e-05 s⁻¹.

For A6U A39C U47C A64U, the “self-cleavage kobs at 40 uM GlcN6P” value (glucosamine-6-phosphate [6]) was < 1e-05 s⁻¹.

G7C G59C was tested, and the “self-cleavage kobs at 40 uM GlcN6P” value (glucosamine-6-phosphate [6]) was < 1e-05 s⁻¹, the “self-cleavage kobs at 160 uM GlcN6P” value (glucosamine-6-phosphate [2]) was < 1e-05 s⁻¹ and the “self-cleavage kobs at 640 uM GlcN6P” value (glucosamine-6-phosphate [3]) was < 1e-05 s⁻¹. The “self-cleavage kobs at 2500 uM GlcN6P” value (glucosamine-6-phosphate [4]) was < 1e-05 s⁻¹ and the “self-cleavage kobs at 10000 uM GlcN6P” value (glucosamine-6-phosphate [5]) was < 1e-05 s⁻¹.

In the case of A6C G7A G40A, the “self-cleavage kobs at 40 uM GlcN6P” value (glucosamine-6-phosphate [6]) is reported as < 1e-05 s⁻¹ and the “self-cleavage kobs at 10000 uM GlcN6P” value (glucosamine-6-phosphate [5]) is reported as < 1e-05 s⁻¹.

A6G U56C was tested, and the “self-cleavage kobs at 40 uM GlcN6P” value (glucosamine-6-phosphate [6]) was < 1e-05 s⁻¹, the “self-cleavage kobs at 160 uM GlcN6P” value (glucosamine-6-phosphate [2]) was < 1e-05 s⁻¹ and the “self-cleavage kobs at 640 uM GlcN6P” value (glucosamine-6-phosphate [3]) was < 1e-05 s⁻¹. The “self-cleavage kobs at 10000 uM GlcN6P” value (glucosamine-6-phosphate [5]) was < 1e-05 s⁻¹.

In the case of C58A A64C, the kcat (glucosamine-6-phosphate [1]) is reported as < 1e-05 s⁻¹ and the “self-cleavage kobs at 40 uM GlcN6P” value (glucosamine-6-phosphate [6]) is reported as < 1e-05 s⁻¹.

For A6U U49C, the “self-cleavage kobs at 40 uM GlcN6P” value (glucosamine-6-phosphate [6]) was < 1e-05 s⁻¹, the “self-cleavage kobs at 160 uM GlcN6P” value (glucosamine-6-phosphate [2]) was < 1e-05 s⁻¹ and the “self-cleavage kobs at 2500 uM GlcN6P” value (glucosamine-6-phosphate [4]) was < 1e-05 s⁻¹. The “self-cleavage kobs at 10000 uM GlcN6P” value (glucosamine-6-phosphate [5]) was < 1e-05 s⁻¹.

For A6C C61U, the “self-cleavage kobs at 40 uM GlcN6P” value (glucosamine-6-phosphate [6]) was < 1e-05 s⁻¹, the “self-cleavage kobs at 160 uM GlcN6P” value (glucosamine-6-phosphate [2]) was < 1e-05 s⁻¹ and the “self-cleavage kobs at 10000 uM GlcN6P” value (glucosamine-6-phosphate [5]) was < 1e-05 s⁻¹.

With A64G U65C C70G the kcat (glucosamine-6-phosphate [1]) was 1.52e-05 ± 6.7e-06 s⁻¹.

In the case of A6U C11G U46G C68A, the “self-cleavage kobs at 40 uM GlcN6P” value (glucosamine-6-phosphate [6]) is reported as < 1e-05 s⁻¹, the “self-cleavage kobs at 640 uM GlcN6P” value (glucosamine-6-phosphate [3]) is reported as < 1e-05 s⁻¹ and the “self-cleavage kobs at 2500 uM GlcN6P” value (glucosamine-6-phosphate [4]) is reported as < 1e-05 s⁻¹.

G59U C68G showed a kcat (glucosamine-6-phosphate [1]) of 2.57e-05 ± 4.8e-06 s⁻¹.

A6U C11G showed a KM (glucosamine-6-phosphate [7]) of 1370 ± 460 µM.

A6U U30C U56C was tested, and the “self-cleavage kobs at 40 uM GlcN6P” value (glucosamine-6-phosphate [6]) was < 1e-05 s⁻¹.

For G7A C10G C50U, the “self-cleavage kobs at 40 uM GlcN6P” value (glucosamine-6-phosphate [6]) was < 1e-05 s⁻¹.

For A6G G35U U56A, the “self-cleavage kobs at 40 uM GlcN6P” value (glucosamine-6-phosphate [6]) was < 1e-05 s⁻¹.

In the case of A6U G29A G63U, the “self-cleavage kobs at 40 uM GlcN6P” value (glucosamine-6-phosphate [6]) is reported as < 1e-05 s⁻¹.

With A6G A15C C70A the “self-cleavage kobs at 40 uM GlcN6P” value (glucosamine-6-phosphate [6]) was < 1e-05 s⁻¹.

For A6G C70U, the “self-cleavage kobs at 40 uM GlcN6P” value (glucosamine-6-phosphate [6]) was < 1e-05 s⁻¹ and the “self-cleavage kobs at 160 uM GlcN6P” value (glucosamine-6-phosphate [2]) was < 1e-05 s⁻¹.

For C58U C70G, the kcat (glucosamine-6-phosphate [1]) was 1.93e-05 ± 3.5e-06 s⁻¹, the “self-cleavage kobs at 640 uM GlcN6P” value (glucosamine-6-phosphate [3]) was 2.38e-05 ± 9.2e-06 s⁻¹ and the “self-cleavage kobs at 2500 uM GlcN6P” value (glucosamine-6-phosphate [4]) was 2.22e-05 ± 1e-05 s⁻¹.

For A14U G35A, the KM (glucosamine-6-phosphate [7]) was 6.51 ± 1.5 µM.

In the case of U57G C58U, the kcat (glucosamine-6-phosphate [1]) is reported as 2.34e-05 ± 1.1e-05 s⁻¹, the “self-cleavage kobs at 40 uM GlcN6P” value (glucosamine-6-phosphate [6]) is reported as < 1e-05 s⁻¹ and the “self-cleavage kobs at 160 uM GlcN6P” value (glucosamine-6-phosphate [2]) is reported as < 1e-05 s⁻¹.

G59A G66A was tested, and the kcat (glucosamine-6-phosphate [1]) was 0.000247 ± 1.9e-05 s⁻¹.

With A6G G29C U45G C70G the “self-cleavage kobs at 40 uM GlcN6P” value (glucosamine-6-phosphate [6]) was < 1e-05 s⁻¹.

In the case of A6G G38U U54C, the “self-cleavage kobs at 40 uM GlcN6P” value (glucosamine-6-phosphate [6]) is reported as < 1e-05 s⁻¹, the “self-cleavage kobs at 640 uM GlcN6P” value (glucosamine-6-phosphate [3]) is reported as < 1e-05 s⁻¹ and the “self-cleavage kobs at 2500 uM GlcN6P” value (glucosamine-6-phosphate [4]) is reported as < 1e-05 s⁻¹.

In the case of G59A, the kcat (glucosamine-6-phosphate [1]) is reported as 8.71e-05 ± 2.2e-06 s⁻¹, the KM (glucosamine-6-phosphate [7]) is reported as 1670 ± 170 µM and the “self-cleavage kobs at 640 uM GlcN6P” value (glucosamine-6-phosphate [3]) is reported as 2.2e-05 ± 1.9e-06 s⁻¹. The “self-cleavage kobs at 2500 uM GlcN6P” value (glucosamine-6-phosphate [4]) was 5.42e-05 ± 1.8e-06 s⁻¹ and the “self-cleavage kobs at 10000 uM GlcN6P” value (glucosamine-6-phosphate [5]) was 7.42e-05 ± 1.2e-06 s⁻¹.
